Results: paper PMC9352930

Columns and labels:
[1] = biological target: EWEµH fusion protein (EWE fused to FH CCP2-4 and CCP19-20) (human); assay: BLI; kinetics: EWE, EWEµH or EWEnH held on anti-penta his (His1K) biosensors, dilution series of C3b or iC3b; 20 mM HEPES pH 7.5, 150 mM NaCl, 30°C; 1:1 model
[2] = biological target: EWEnH fusion protein (EWE fused to FH CCP2-4) (human); assay: as above

Kd [1] [nM]	Kd [2] [nM]	Substance
2.9	7.1	iC3b (domain or fragment)
0.4	8.9	C3b (proteolytic fragment of complement component C3) (from UniProt P01024 749-1663; P01024 749-1663) (domain or fragment)
